Tests used:
Experiment in all cases: FP titration, 1 nM peptide, hinge varied
[1] = target: T1, TAMRA-labeled effector peptide cs201B (5(6)-TAMRA label coupled on resin after synthesis)
T1 construct: also called TAMRA-cs201B
T1 peptide: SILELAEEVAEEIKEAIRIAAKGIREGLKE
Method: (§1) FIG. 10. Redesign of hinges to bind other target peptides. An experimentally tested hinge (top, cs201) is redesigned using a one-sided two-state design approach to bind to different target peptides. Hinges csw13 and csw20 are designed to bind to peptides cs221B and cs074B, respectively, while having a backbone conformation that is similar to the parent cs201 that binds cs201B. Left: design models, right: FP titrations using 1 nM peptide (cs201B, cs221B, cs074B, js007B) and varying concentrations of hinge (from top to bottom: cs201, csw13, csw20). csw13 is an example of a successful orthogonal redesign that specifically binds the new target peptide cs221B while not binding the parent target peptide cs201B or the off-target peptides cs074B or js007B. csw20 is a less orthogonal example that binds the new target peptide cs074B most strongly but still binds to the parent-target peptide cs201B and to the off-target peptide cs221B albeit weaker than the new target.
(§2) All FP measurements were performed at 25° C. in 96-well plates (Corning 3686) using a Synergy Neo2™ plate reader and a 530/590 nm filter cube. The buffer for all FP measurements was 20 mM Tris-HCl, 100 mM NaCl, 0.05% v/v TWEEN20 at pH 8. Titrations were carried out in 96-well format, with 4 replicates per plate and 24 data points per titration (23 steps of two-fold serial dilution of hinges in the presence of TAMRA-labeled peptide at a constant concentration between 0.1 nM and 1 nM) with a final sample volume of 80 μl per well. Titration plates were incubated overnight at room temperature before measuring to ensure complete equilibration. The polarization signal S (as calculated by the Neo2™ software) was fitted to the equation

[2] = target: T2, TAMRA-labeled effector peptide cs221B (5(6)-TAMRA label coupled on resin after synthesis)
T2 construct: also called TAMRA-cs221B
T2 peptide: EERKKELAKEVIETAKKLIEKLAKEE
Method: as §1, §2

[3] = target: T3, TAMRA-labeled effector peptide js007B (5(6)-TAMRA label coupled on resin after synthesis)
T3 construct: also called TAMRA-js007B
T3 peptide: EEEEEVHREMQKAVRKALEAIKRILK
Method: as §1, §2

[4] = target: T4, TAMRA-labeled effector peptide cs074B (5(6)-TAMRA label coupled on resin after synthesis)
T4 construct: Chemically synthesized; also called TAMRA-cs074B
T4 peptide: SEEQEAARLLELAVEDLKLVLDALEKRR
Method: as §1, §2

binding result [1]: no binding
binding result [2]: binds
binding result [3]: no binding
binding result [4]: no binding
B1: swapped target hinge csw13 (designed binder)
chain: MSGNEEVKKLVEEAKKYLKEAEEYIKKAKKTGNEELLEKALKLLEKALELVKKAIELDPNNKEAIEQAVEIARALNEVAELLIEEAKKTGNEELLEKALEALEAANEALKLAIENNENDKELLAEIAVELAEVGVLLAEVLIEEAKKTGDPELLKLALEVLEAAVEALELALKLDPNNEEAVELAEEAAKLLEEVAKELKEEAKKTGDPELEKLAKEAEELAKRAKELAERQRGSGSHHWGSTHHHHHH
